The experiment addresses T1, CD33蛋白 (SEQ ID NO:27) on CHO-K1-CD33 / A375-CD33 cells (Homo sapiens (Human), UniProt P20138 18-364).
T1 construct: also called CHO-K1-CD33细胞; A375-CD33细胞
As to the kind of experiment: flow cytometry on CHO-K1-CD33 cells, Alexa-647 anti-human Fc.

T1 sequence (P20138 18-364 limits assumed): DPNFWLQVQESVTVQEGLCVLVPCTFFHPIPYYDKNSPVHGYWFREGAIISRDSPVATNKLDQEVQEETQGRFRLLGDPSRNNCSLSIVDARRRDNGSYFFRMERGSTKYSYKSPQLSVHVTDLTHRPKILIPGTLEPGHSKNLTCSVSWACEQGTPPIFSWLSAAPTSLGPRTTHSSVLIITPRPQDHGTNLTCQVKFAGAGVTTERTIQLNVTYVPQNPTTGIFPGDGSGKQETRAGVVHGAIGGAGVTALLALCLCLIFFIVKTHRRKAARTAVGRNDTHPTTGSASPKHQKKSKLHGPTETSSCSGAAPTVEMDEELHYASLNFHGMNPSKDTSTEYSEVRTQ

B1: CD3×CD33双特异性抗体 (bispecific antibody, human IgG1, kappa, L234A L235A)
chain: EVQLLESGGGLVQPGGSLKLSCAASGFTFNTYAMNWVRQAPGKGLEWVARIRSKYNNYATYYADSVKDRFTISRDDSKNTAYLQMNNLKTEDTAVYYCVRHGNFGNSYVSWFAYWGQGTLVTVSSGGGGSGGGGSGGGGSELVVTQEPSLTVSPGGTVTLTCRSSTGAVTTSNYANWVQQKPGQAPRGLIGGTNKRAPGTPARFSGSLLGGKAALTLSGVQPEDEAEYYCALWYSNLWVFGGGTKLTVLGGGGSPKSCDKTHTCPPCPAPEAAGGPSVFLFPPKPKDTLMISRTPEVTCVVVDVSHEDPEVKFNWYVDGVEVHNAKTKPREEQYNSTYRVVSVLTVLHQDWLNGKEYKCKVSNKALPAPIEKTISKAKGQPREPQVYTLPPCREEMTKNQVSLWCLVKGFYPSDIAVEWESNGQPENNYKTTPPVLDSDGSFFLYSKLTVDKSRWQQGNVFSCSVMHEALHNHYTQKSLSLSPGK
heavy: EVQLVQSGAEVKKPGSSVKVSCKASGYTITDSNIHWVRQAPGQSLEWIGYIYPYNGGTDYNQKFKNRATLTVDNPTNTAYMELSSLRSEDTAFYYCVNGNPWLAYWGQGTLVTVSSASTKGPSVFPLAPSSKSTSGGTAALGCLVKDYFPEPVTVSWNSGALTSGVHTFPAVLQSSGLYSLSSVVTVPSSSLGTQTYICNVNHKPSNTKVDKKVEPKSCDKTHTCPPCPAPEAAGGPSVFLFPPKPKDTLMISRTPEVTCVVVDVSHEDPEVKFNWYVDGVEVHNAKTKPREEQYNSTYRVVSVLTVLHQDWLNGKEYKCKVSNKALPAPIEKTISKAKGQPREPQVCTLPPSREEMTKNQVSLSCAVKGFYPSDIAVEWESNGQPENNYKTTPPVLDSDGSFFLVSKLTVDKSRWQQGNVFSCSVMHEALHNHYTQKSLSLSPGK
light: DIQLTQSPSTLSASVGDRVTITCRASESLDNYGIRFLTWFQQKPGKAPKLLMYAASNQGSGVPSRFSGSGSGTEFTLTISSLQPDDFATYYCQQTKEVPWSFGQGTKVEVKRTVAAPSVFIFPPSDEQLKSGTASVVCLLNNFYPREAKVQWKVDNALQSGNSQESVTEQDSKDSTYSLSSTLTLSKADYEKHKVYACEVTHQGLSSPVTKSFNRGEC
notes: Fc is human IgG1 with L234A/L235A; also called 抗体CD3×CD33; CD3×CD33双特异抗体
In the case of B1, the binding result was “binds”.

The values above are taken from CN115368464A (HEFEI TIANGANG IMMUNOLOGY PHARMACEUTICAL CO LTD, dated 2022).
